Reference: the supplement of paper PMC7877785
± gives the uncertainty stated by the source.

Assay: self-splicing fitness, log relative to wild type (ln ratio); higher = more splicing; Tetrahymena group I intron in knt gene, E. coli kanamycin selection, DiMSum; sequences stand for … in CUCUCU…GGAGGGAAAAGUUAUCAGGCAUGCACCUGGUAGCUAGUCUUUAAACCAAUAGAUUGCAUCGGUUUAAAAGGCAAGACCGUCAAAUUGCGGGAAAGGGGUCAACAGCCGUUCAGUACCAAGUCUCAGGGGAAACUUUGAGAUGGCCUUGCAAAGGGUAUGGUAAUAAGCUGACGGACAUGGUCCUAACCACGCAGCCAAGUCCUAAGUCAACAGAUCUUCUGUUGAUAUGGAUGCAGUUCACAGACUAAAUGUCGGUCGGGGAAGAUGUAUUCUUCUCAUAAGAUAUAGUCGGACCUCUCCUUAAUGGGAGCUAGCGGAUGAAGUGAUGCAACACUGGAGCCGCUGGGAACUAAUUUGUAUGCGAAAGUAUAUUGAUUAGUUUUGGAGUACUCGUGGUCG
Outline: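 Library with all eight P1ex-region intron nucleotides randomised, intron inside the knt kanamycin-resistance gene on pET-22b(+), in E. coli BL21(DE3). Cells grew overnight at 37°C or 30°C on LB agar with or without 25 μg/mL kanamycin (plus 100 μg/mL carbenicillin, 50 μM IPTG, 0.2% rhamnose), in six replicate transformations. Pooled colonies were amplicon-sequenced on Illumina HiSeq 2500. DiMSum fitness is the error-weighted combination of wild-type-normalised replicate fold changes, kanamycin versus none.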

Sequence | self-splicing fitness (ln) (30 °C) | self-splicing fitness (ln) (37 °C)
GCGAAGCAAUAUUACGAGCA | -1.52 ± 0.2 | -1.63 ± 0.25
GGAUAGCAAUAUUACGUCAU | -2.02 ± 0.11 | -0.395 ± 0.12
GUUCAGCAAUAUUACGCUUU | -0.726 ± 0.088 | 0.0124 ± 0.11
AAACAGCAAUAUUACGAAGA | -2.29 ± 0.12 | -1.55 ± 0.11
GGAUAGCAAUAUUACGCACA | -0.523 ± 0.12 | 0.321 ± 0.14
ACGGAGCAAUAUUACGUUCG | -1.33 ± 0.097 | -0.333 ± 0.13
GCUAAGCAAUAUUACGAGAC | -2.13 ± 0.13 | -0.763 ± 0.14
UGUGAGCAAUAUUACGCCUC | -1.83 ± 0.41 | 
CGUAAGCAAUAUUACGGAUC | -3.4 ± 0.23 | -3.44 ± 0.37
CAUGAGCAAUAUUACGAUAC | -2.93 ± 0.35 | 
UGCCAGCAAUAUUACGCACC | -2.19 ± 0.28 | -1.32 ± 0.35
ACCGAGCAAUAUUACGUGAC | -4.19 ± 0.34 | -1.4 ± 0.15
AACAAGCAAUAUUACGGCAC | -0.526 ± 0.067 | -0.265 ± 0.1
AUCGAGCAAUAUUACGUUUU | -4.86 ± 0.36 | -1.23 ± 0.12
AUCAAGCAAUAUUACGAUAC | -4.68 ± 0.39 | -2.17 ± 0.26
GCGAAGCAAUAUUACGUUAU | -2.2 ± 0.1 | -1.86 ± 0.11
ACAAAGCAAUAUUACGCGAG | -1.33 ± 0.06 | -0.621 ± 0.072
CGUAAGCAAUAUUACGAUUC | -3 ± 0.13 | -2.52 ± 0.16
CUUAAGCAAUAUUACGAUUC | -4.19 ± 0.46 | -2.07 ± 0.26
GCGAAGCAAUAUUACGGGUU | -2.88 ± 0.1 | -1.65 ± 0.099
CACAAGCAAUAUUACGGUCU | -2.76 ± 0.1 | -1.99 ± 0.12
ACUGAGCAAUAUUACGUGUG | -2.22 ± 0.11 | -2.13 ± 0.16
GGUUAGCAAUAUUACGGCAU | -0.0374 ± 0.082 | -0.0754 ± 0.096
UCAGAGCAAUAUUACGUAUC | -2.86 ± 0.36 | -1.41 ± 0.31

Sequence | self-splicing fitness (ln) (30 °C) | self-splicing fitness (ln) (37 °C)
AACUAGCAAUAUUACGGGAG | -1.35 ± 0.11 | -1.21 ± 0.13
GAGGAGCAAUAUUACGUUCA | -1.18 ± 0.081 | -0.275 ± 0.11
GCGCAGCAAUAUUACGCGAU |  | -2.14 ± 0.3
GGAUAGCAAUAUUACGCGAG | -1.38 ± 0.15 | -1.16 ± 0.14
GCCAAGCAAUAUUACGGAUG | -1.24 ± 0.057 | -0.693 ± 0.07
CCGUAGCAAUAUUACGAAAU | -3.61 ± 0.32 | -2.7 ± 0.34
AACGAGCAAUAUUACGAUAC | -2.52 ± 0.37 | -1.97 ± 0.46
UCGCAGCAAUAUUACGAAAA | -3.16 ± 0.43 | -2.2 ± 0.46
ACGUAGCAAUAUUACGGAAU | -2.29 ± 0.15 | -2.07 ± 0.17
AAUUAGCAAUAUUACGGAAU | -2.33 ± 0.27 | -0.461 ± 0.18
GGAAAGCAAUAUUACGGUUU | -1.02 ± 0.061 | -0.46 ± 0.082
AAGUAGCAAUAUUACGAGUA | -1.79 ± 0.15 | -1.86 ± 0.18
CUGGAGCAAUAUUACGGUAU | -4.78 ± 0.41 | -2.49 ± 0.31
GUGAAGCAAUAUUACGUGCU | -1.99 ± 0.091 | -0.974 ± 0.1
GAGUAGCAAUAUUACGUUAA | -3.94 ± 0.22 | -2.33 ± 0.18
UAUAAGCAAUAUUACGUAAU | -3.56 ± 0.37 | -0.822 ± 0.19
CAAUAGCAAUAUUACGUACG | -0.451 ± 0.063 | -0.069 ± 0.078
CGACAGCAAUAUUACGGUUA | -0.601 ± 0.062 | 0.0311 ± 0.067
CGGUAGCAAUAUUACGCACU | -1.64 ± 0.26 | 0.00723 ± 0.27
UAACAGCAAUAUUACGCGGG | -2.44 ± 0.1 | -1.18 ± 0.078
AACUAGCAAUAUUACGUGUG | -1.47 ± 0.051 | -0.869 ± 0.067
ACGGAGCAAUAUUACGAAGA |  | -0.799 ± 0.24
ACGGAGCAAUAUUACGGCUA | -1.96 ± 0.21 | -0.548 ± 0.14
UACGAGCAAUAUUACGAGCA | -2.48 ± 0.16 | -0.109 ± 0.12
